This note sets out measurements from a protein production outcome set (Wang et al. 2014).

The nature of the series: label from the status in PepcDB records.
“MKKWIKIVLYSLLAILIVGSITFLSWSQFTYKPTKEALSLVDDKKDEDYIVFGEKDAKIGVIFYQGAKVEAEAYSYLGEALAKDGHFVVMPKLPLNLALFGINEVDSVIEQYPEVQKWYVAGHSMGGAMISRYAFQHEEKVDGIIFLGSYPADDFSTKSIPMLSIYGEVDALATVEKIENNKKFMSKNTTMHMIKGGNHAHFGMYGEQKGDNASLITAKAQRDETVKVIEQWLLEQ”: the protein production result is reported as “failed”.
With “MPVSIFMTVVNKSGVLARVTAEIAKADSNIDDITLENDKDYTTMRFILQTRDRQHLAQIFRRLKHIDEIVKMGRIKNLLEHHHHHH”, the protein production result is given as “not failed”.
Then “MKPNFSRDYQLKWLFYVYCVRSEVGEEEEKKKVTKKTRKRVRFDLNVQTYEPIVPSRYENACSDDEEGKGGRSKGSSAIDKKPEDLSSRSVYPSNYRYHNCVDSFEDEDDEMGYGESDLEDEDYYTDNENDYEDDADDEDEEEEEENEQDVAPLLNPVENLAQWKAVKARPVKVKRVMKENVEEDMDDQAKPLLKEIIVNTSLSNWLASPKSLHANGSSKRSPIVDITNMENR”, with “failed”; and “MTIKGRAFPEGFLWGGAVAAHQLEGGYKEGGKGLSTADIMTLGTNERPREITDGVVAGKYYPNHQAIDFYHRYPEDIELFAEMGFKCFRTSIAWTRIFPNGDESEPNEAGLQFYDDLFDECLKNGIQPVVTLAHFEMPYHLVKQYGGWRNRKLIQFYLNFAKVCFERYRDKVTYWMTFNEINNQTNFESDGAMLTDSGIIHQPGENRERWMYQAAHYELVASAAAVQLGHQINPDFQIGCMIAMCPIYPLTAAPADVLFAQRAMQTRFYFADVHCNGTYPQWLRNRFESEHFNLDITAEDLKILQAGTVDYIGFSYYMSFTVKDTGKLAYNEEHDLVKNPYVKASDWGWQVDPVGLRYAMNWFTDRYHLPLFIVENGLGAIDKKTADNQIHDDYRIDYLTDHLRQIKLAVLEDGVDLIGYTPWGCIDLVAASTGQMSKRYGFIYVDENDDGSGSLKRYKKDSFTWFQHVIATNGAEIE”, with “not failed”.
In the case of “GTGLHCLSIERDLMKKFHLKDAFIIPTPVNNYHASLGKAAAQYLETHLQQGDLLGIGWGETISKMLENIHFETSINLSIVTLTGGVNHYLSRKQNYLHYMQGDLHIIPTPFLASTTEMAQSILSEPSVKDMLHVASLAHTAIVGIGGLSQDATIVKEEKLTLREMTYIRSQNGAGDILGQFYNTNGDLLELSHHNRLIGTPLSILRNMNHVVGVAGGTEKIDAIYGALKGKFIHTLITDEETALSLLRKDGDC” it was “failed”; in that of “MSETITFPPLMTGEAAGPGQDPFDLACQKAELGVDAGLVVYELGTDVLRAALVLAPEVPLAKAMAMLPVCGVGFQNALGALAPPEVAVHLDWNGALRINGARCGRLRIAASTDDPDTQPDWLVVGLDLPLWPEGDGGETPDETALYAEGCADVAAPRLLESWARHCLHWINRWDEGELETIHGEWRGLAHGMGEARTEAGRSGTFLGVDEDFGMLLRDETTTHLIPLTTVLVQD”, “not failed”; in that of “DLNLPIYPVKGYSLTLPVTNSDGAPVSTVLDESYKVAITRFDNRIRVGGMAELSGYEIKLPEKRRETLALVVNDLFPEGGDLSQASFWSGLRPMTPDSTPLIGRTRFDN”, “failed”.
Then “MFSVNNTHSSVSCSPSINSNSTSNEHYLRILTEWEKNSSPGEERGIAFNRLSQCFQNQEAVLNLSDLNLTSLPELPKHISALIVENNKLTSLPKLPAFLKELNADNNRLSVIPELPESLTTLSVRSNQLENLPVLPNHLTSLFVENNRLYNLPALPEKLKFLHVYYNRLTTLPDLPDKLEILCAQRNNLVTFPQFSDRNNIRQKEYYFHFNQITTLPESFSQLDSSYRINISGNPLSTRVLQSLQRLTSSPDYHGPQIYFSMSDGQQNTLHRPLADAVTAWFPENKQSDVSQIWHAFEHEEHANTFSAFLDRLSDTVSARNTSGFREQVAAWLEKLSASAELRQQSFAVAADATESCEDRVALTWNNLRKTLLVHQASEGLFDNDTGALLSLGREMFRLEILEDIARDKVRTLHFVDEIEVYLAFQTMLAEKLQLSTAVKEMRFYGVSGVTANDLRTAEAMVRSREENEFTDWFSLWGPWHAVLKRTEADRWAQAEEQKYEMLENEYSQRVADRLKASGLSGDADAEREAGAQVMRETEQQIYRQLTDEVLALRLSENGSRLHHS”, with “not failed”.
Take “ALKQKIIGNGEKRVVTYAPTWREDDFISVGHYHFRWHFSLKKMMGLLPEDVMLLIRPHYLVTDRIDIKGFEDRVVIDSTTDMNEIYLITDLMVTDYSSVMFDFAILKRPMLFFAYDLEYYRDDLRGFYFDYYTELPGSIVTDETHLLAEIDQLLQNNFAELDPERFNKFAKRFVSWERGTAAQQVIEKINYRRDEK”: the protein production result is “failed”.
As for “MQGTKIRLMVGGLLLAAASNNVQAEALQPDPAWQQGKLDNGFSWQLLATPQRPSDRIELRLIVNTGSLSENTQEVGFAHLLPRLALMSSASFTPAQLQSLWQQGIDNERPLPPAITSYDFTLYSLSLPNNRPDLLKDALAWLSDTAGNLAVSEQTVNAALNTATDPIATFPQNIQEPWWRYRLKGSSLIGHDPGQPVTQPVDVEKLKQFYQQWYTPDAMTLYVVGNVDSRSIAAQISKAFSELKGKRTAPAAVATLAPLPPEPVSLMNEQAAQDTLSLMWDTPWHPIQDSMALSRYWRSDLAREALFWHIKQVLEKNNQKNLKLGFDCRVQYQRAQCAIHLNTPVENLTANMTFVARELAALRANGLSQAEFDALMTQKNDQLSKLFATYARTDTDILMSQRLRSQQSGVVDIAPEQYQKLRQAFLSGLTLAELNRELKQQLSQDTTLVLMQPKGEPEVNVKALQEIYNGIMAPQTVAEEEVAPAEAVETAPVMPTTAQ”, the protein production result is on record as “failed”.
As for “VRIVLVGSGNLATQTALALSEAASPPVQVWSRNAEHAERLASMLPGATATDRTEELLCDAELYLLAVSDHALESVAATLPPTSGIWAHTAGSMPMDTLRPYHAQIGVFYPLQTFSRERRVDYSSIPIYIEGNDESVVRLLESVARLISRNVLRCT”, the protein production entry is on record as “failed”.
Then “MSTEDALCFTGEEYARHVREYWRGVAESDGFDSEDIRSPVVLTGLFHYDCQSGRRYPDPLLVKRYALLGLHRFNILQGTSFELDALQKFNKTMNLTSSYYITLLANEPGAIPLQKTFQVRVDERKYDTLDLTVAIARLKKDQNEAAETTKEPFVPHFCCSAVSDGVFQGPLPDWPSDDALRHDRNRFYELEKSEWQATDWISLYLELLILATDRGMFGVAQTGLPQVQILKVVIETEEENEKPLDKRLNARRAHVYITFTGLPKSPRLVEIGEHVERKAIIRRVIDDSGYLTLLGKFWSGKDTEQRSKTRQSEEKVESSQKRSRLC”, with “failed”.
Turning to “MEKPRSIEETPSSEPMEEEEDDDLELFGGYDSFRSYNSSVGSESSSYLEESSEAENEDREAGELPTSPLHLLSPGTPRSLDGSGSEPAVCEMCGIVGTREAFFSKTKRFCSVSCSRSYSSNSKKASILARLQGKPPTKKAKVLHKAAWSAKIGAFLHSQGTGQLADGTPTGQDALVLGFDWGKFLKDHSYKAAPVSCFKHVPLYDQWEDVMKGMKVEVLNSDAVLPSRVYWIASVIQTAGYRVLLRYEGFENDASHDFWCNLGTVDVHPIGWCAINSKILVPPRTIHAKFTDWKGYLMKRLVGSRTLPVDFHIKMVESMKYPFRQGMRLEVVDKSQVSRTRMAVVDTVIGGRLRLLYEDGDSDDDFWCHMWSPLIHPVGWSRRVGHGIKMSERRSDMAHHPTFRKIYCDAVPYLFKKVRAVYTEGGWFEEGMKLEAIDPLNLGNICVATVCKVLLDGYLMICVDGGPSTDGLDWFCYHASSHAIFPATFCQKNDIELTPPKGYEAQTFNWENYLEKTKSKAAPSRLFNMDCPNHGFKVGMKLEAVDLMEPRLICVATVKRVVHRLLSIHFDGWDSEYDQWVDCESPDIYPVGWCELTGYQLQPPVAAEPATPLKAKEATKKKKKQFGKKRKRIPPTKTRPLRQGSKKPLLEDDPQGARKISSEPVPGEIIAVRVKEEHLDVASPDKASSPELPVSVENIKQETDD”, the protein production result is given as “failed”.
